Laboratory results as given in patent US20240392024A1 (SHANGHAI CELGEN BIO PHARMACEUTICAL, published 2024).
Substitutions are numbered along the chain they refer to. Where “and” joins values, the source holds several entries; their conditions need not be identical. Equal values may be shown once.

T1: TNFR2-His (Sino Biological, 10417-H08H, NP_001057.1 Met1-Asp257, with multi-histidine tag expressed on … (human, UniProt P20333 23-257))
T1 construct: range 1-257; Bought protein; also called recombinant human TNFR2 protein; TNFR2-His antigen; not shown: C-terminal multi-histidine tag
T1 sequence (looked up): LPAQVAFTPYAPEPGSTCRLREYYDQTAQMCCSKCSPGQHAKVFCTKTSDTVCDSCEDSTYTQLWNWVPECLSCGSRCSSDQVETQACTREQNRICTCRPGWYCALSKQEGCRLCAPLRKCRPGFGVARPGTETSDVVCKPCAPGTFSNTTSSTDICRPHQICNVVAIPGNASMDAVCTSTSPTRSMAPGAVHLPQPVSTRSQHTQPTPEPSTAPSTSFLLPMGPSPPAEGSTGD

T2: human TNFR2 on the cell membrane (human, UniProt P20333 23-461)
T2 construct: whole, on cells; One molecule for all cell formats; also called TNFR2-CHO cells; CHO-TNFR2
T2 sequence (looked up): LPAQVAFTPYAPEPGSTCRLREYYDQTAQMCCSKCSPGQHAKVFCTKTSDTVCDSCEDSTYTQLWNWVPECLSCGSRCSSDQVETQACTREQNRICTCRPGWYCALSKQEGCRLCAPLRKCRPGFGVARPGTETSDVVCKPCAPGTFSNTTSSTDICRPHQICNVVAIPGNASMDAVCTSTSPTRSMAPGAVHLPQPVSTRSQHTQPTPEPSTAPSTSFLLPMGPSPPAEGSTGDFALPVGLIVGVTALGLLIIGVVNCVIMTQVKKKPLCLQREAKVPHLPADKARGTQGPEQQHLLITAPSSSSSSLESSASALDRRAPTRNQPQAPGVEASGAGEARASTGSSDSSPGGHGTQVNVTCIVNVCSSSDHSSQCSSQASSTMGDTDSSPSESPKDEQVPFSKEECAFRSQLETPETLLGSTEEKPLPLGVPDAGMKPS

B1: 11G2huVH1 + huVL3(P07271) (antibody, V domains shown)
VH: QVQLVQSGAEVKKPGASVKLSCKASGYTFITYDINWVRQAPGQGLEWIGWIYPRDGNTQFNENFKGKATMTVDESTSTAYMEVRSLRSDDTAVYYCARGDRDYGYFDVWGQGTTVTVSS
VL: DIQMTQSPSSLSASVGDRVTITCQASQDISNYLNWYQQKPGKAPKLLIYFKSKLETGVPSRFSGSGSGTDFTFTISSLQPEDIATYYCQQGNTLPLTFGGGTKLEIK
notes: Humanized 11G2
B2: 11G2huVH4 + huVL2(P07269) (antibody, V domains shown)
VH: QVQLVQSGAEVKKPGASVKVSCKASGYTFITYDINWVRQAPGQGLEWIGWIYPRDGNTQYAQKFQGRVTMTTDTSTSTAYMELRSLRSDDTAVYYCARGDRDYGYFDVWGQGTTVTVSS
VL: B1 VL with Q24R, E55H, T56S, F73L, I83F
notes: Humanized 11G2
B3: 11G2huVH5 + huVL3(P07275) (antibody, V domains shown)
VH: B2 VH with P41T, T72R, D73N, T76I, R84S, D89E
VL: B1 VL
notes: Humanized 11G2
B4: 11G2huVH4 + huVL3(P07274) (antibody, V domains shown)
VH: B2 VH
VL: B1 VL
notes: Humanized 11G2
B5: 11G2huVH3 + huVL3(P07273) (antibody, V domains shown)
VH: B2 VH with P41T, Y60F, A61N, Q62E, K63N, T72R, D73N, T76I, R84S, D89E
VL: B1 VL
notes: Humanized 11G2
B6: 11G2huVH2 + huVL3(P07272) (antibody, V domains shown)
VH: B2 VH with Y60F, A61N, Q62E, K63N, Q65K
VL: B1 VL
notes: Humanized 11G2
B7: 11G2huVH5 + huVL2(P07270) (antibody, V domains shown)
VH: B2 VH with P41T, T72R, D73N, T76I, R84S, D89E
VL: B1 VL with Q24R, E55H, T56S, F73L, I83F
notes: Humanized 11G2
B8: 12E12huVH3 + huVL4(P07290) (antibody, V domains shown)
VH: QVQLVQSGAEVKKPGASVKVSCKVSGFNIKDFYIHWVRQAPGKGLEWMGRVDPEDGNTEYAQKFQGRVTMTTDTSTDTAYMELSSLRSEDTAVYYCSTWDGFSYFDYWGQGTTVTVSS
VL: EAVVTQSPATLSLSPGERATLSCRSSTGPVTTNNYANWVQQKPGQAFRGLIGGTNDRAPGIPARFSGSGSGTDTTLTISSLQPEDFAVYYCALWYRNHWVFGGGTKLEIK
notes: Humanized 12E12
B9: 12E12huVH5 + huVL4(P07292) (antibody, V domains shown)
VH: B8 VH with Q1E, S17T, V20I, R38Q, M48I, Q62E, M70I, T72A
VL: B8 VL
notes: Humanized 12E12
B10: 12E12huVH3 + huVL2(P07282) (antibody, V domains shown)
VH: B8 VH
VL: QAVVTQEPSLTVSPGGTVTLTCRSSTGPVTTNNYANWVQQKPGQAFRGLIGGTNDRAPGVPARFSGSLLGGKAALTLSGAQPEDEAEYYCALWYRNHWVFGGGTKLTVL
notes: Humanized 12E12
B11: 12E12huVH4 + huVL4(P07291) (antibody, V domains shown)
VH: B8 VH with Q1E, S17T, V20I, R38Q, M48I, Q62P, K63N, G66D, M70I, T72A
VL: B8 VL
notes: Humanized 12E12
B12: 12E12huVH5 + huVL2(P07286) (antibody, V domains shown)
VH: B8 VH with Q1E, S17T, V20I, R38Q, M48I, Q62E, M70I, T72A
VL: B10 VL
notes: Humanized 12E12
B13: 12E12huVH2+huVL4(P07289) (antibody, V domains shown)
VH: B8 VH with K43Q, M48I, Q62P, K63N, G66D, V68A, D77S, M81L
VL: B8 VL
B14: 12E12huVH1+huVL4(P07288) (antibody, V domains shown)
VH: EVQLVQSGAEVKKPGASVKLSCTVSGFNIKDFYIHWVRQAPGQGLEWIGRVDPEDGNTEYAPNFQDRATMTTDTSTNTAYLELSSLRSEDTAVYYCSTWDGFSYFDYWGQGTTVTVSS
VL: B8 VL
B15: 12E12huVH1+huVL1(P07277) (antibody, V domains shown)
VH: B14 VH
VL: B10 VL with L69I, G71D, A73T, A80V
B16: 12E12huVH4+huVL2(P07284) (antibody, V domains shown)
VH: B14 VH with S17T, L20I, T23K, R38Q, Q43K, A68V, M70I, T72A, N77D, L81M
VL: B10 VL
B17: 12E12huVH2+huVL1(P07278) (antibody, V domains shown)
VH: B14 VH with E1Q, L20V, T23K, N77S
VL: B10 VL with L69I, G71D, A73T, A80V
B18: 12E12huVH3+huVL1(P07281) (antibody, V domains shown)
VH: B8 VH
VL: B10 VL with L69I, G71D, A73T, A80V
B19: 12E12huVH2+huVL2(P07279) (antibody, V domains shown)
VH: B14 VH with E1Q, L20V, T23K, N77S
VL: B10 VL

target: T1, TNFR2-His (Sino Biological, 10417-H08H, …); assay: BLI, antibody captured on AHC probe, TNFR2-His in solution
In short: (§1)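 On an Octet run in Basic Kinetics mode, bio-layer interferometry was used to obtain Kon, koff and Kd from kinetic association measurements. Antibodies (50 nM in Q buffer) were held on antibody-capture sensors before exposure to recombinant human TNFR2 in a 2-fold dilution series in Q buffer from a top concentration of 100 nM.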

Row | Kd [nM] | koff [s⁻¹] | kon [M⁻¹ s⁻¹] | Binder
1 | 8.4 | 0.00251 | 299000 | B1
2 | 13.5 | 0.00379 | 281000 | B2
3 | 14.1 | 0.00302 | 213000 | B3
4 | 20.1 | 0.00511 | 254000 | B4
5 | 10.2 | 0.00255 | 249000 | B5
6 | 10.6 | 0.00293 | 276000 | B6
7 | 8.13 | 0.00265 | 326000 | B7

target: T2, human TNFR2 on the cell membrane; assay: flow cytometry on CHO-TNFR2 cells
In short: (§2)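 To build the cell line, CHO cells received a pcDNA3.4 construct encoding human TNFR2, underwent drug selection and were single-clone sorted. Serial antibody dilutions were incubated with these cells in 96-deep-well plates, followed by washing and detection with a fluorescent anti-IgG secondary antibody on a Beckman CytoFLEX. The reported EC50 is taken from the dilution series.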

Row | EC50 | Binder
8 | 0.0367 µg/mL and 0.246 nM | B8
9 | 0.0329 µg/mL and 0.221 nM | B9
10 | 0.0203 µg/mL and 0.136 nM | B10
11 | 0.0215 µg/mL and 0.144 nM | B11
12 | 0.149 µg/mL and 1 nM | B12

target: T2, human TNFR2 on the cell membrane; assay: flow cytometry, CHO-TNFR2 cells
In short: as §2

Row | EC50 [nM] | Binder
13 | 0.183 | B2
14 | 0.056 | B3
15 | 0.226 | B4
16 | 0.162 | B7

target: T1, TNFR2-His (Sino Biological, 10417-H08H, …); assay: ELISA, plate coated with TNFR2-His
In short: (§3)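 Recombinant human TNFR2 with a C-terminal His tag was coated onto plates, which were then blocked. Antibodies in serial dilution were incubated on the plates, followed by an enzyme-labelled anti-IgG secondary antibody. After TMB development, plates were read on a microplate reader, and EC50 was derived from the dilution series.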

Row | EC50 [µg/mL] | Binder
17 | 0.0715 | B1
18 | 0.0544 | B2
19 | 0.0222 | B3
20 | 0.0746 | B4
21 | 0.0778 | B5
22 | 0.0859 | B6
23 | 0.0527 | B7

target: T1, TNFR2-His (Sino Biological, 10417-H08H, …); assay: ELISA, plate coated with TNFR2-His (first test)
In short: as §3

Row | EC50 | Binder
24 | 0.059 µg/mL and 0.395 nM | B8
25 | 0.0533 µg/mL and 0.357 nM | B9
26 | 0.0672 µg/mL and 0.45 nM | B13
27 | 0.0739 µg/mL and 0.495 nM | B14
28 | 0.0606 µg/mL and 0.406 nM | B15
29 | 0.045 µg/mL and 0.301 nM | B10
30 | 0.0416 µg/mL and 0.279 nM | B11
31 | 0.0754 µg/mL and 0.505 nM | B12
32 | 0.049 µg/mL and 0.328 nM | B16
33 | 0.0614 µg/mL and 0.411 nM | B17
34 | 0.0596 µg/mL and 0.399 nM | B18
35 | 0.0687 µg/mL and 0.46 nM | B19

target: T2, human TNFR2 on the cell membrane; assay: flow cytometry on CHO-TNFR2 cells; remark: another data set of the same source
In short: as §2

Row | EC50 [µg/mL] | Binder
36 | 0.0273 | B2
37 | 0.0084 | B3
38 | 0.0338 | B4
39 | 0.0242 | B7

target: T1, TNFR2-His (Sino Biological, 10417-H08H, …); assay: BLI, antibody captured on AHC probe, TNFR2 in solution
In short: as §1

Row | Kd [nM] | koff [s⁻¹] | kon [M⁻¹ s⁻¹] | Binder
40 | 5.03 | 0.00407 | 810000 | B8
41 | 3.14 | 0.0034 | 1.08e+06 | B9
42 | 6.38 | 0.00487 | 764000 | B10
43 | 4.84 | 0.00379 | 782000 | B11
44 | 1.71 | 0.00197 | 1.15e+06 | B12

target: T1, TNFR2-His (Sino Biological, 10417-H08H, …); assay: ELISA, coated TNFR2-His
In short: as §3

Row | EC50 [nM] | Binder
45 | 0.479 | B1
46 | 0.364 | B2
47 | 0.149 | B3
48 | 0.5 | B4
49 | 0.521 | B5
50 | 0.576 | B6
51 | 0.353 | B7
